Test results: paper PMC6895282

Target: TM52 (TetR-MphR hybrid regulator) (synthetic chimera of TetR and MphR; …, UniProt P04483 1-52+Q9EVJ6:56-194, internal_change)
Assay: EMSA

B1: TM52 operator fragment (hybrid tet operator, 2-bp spacer) (dsDNA)
DNA 1: GCGGTGATACTCCCTATCAGTTGATAGAGAGAGCACATCA
DNA 2: TGATGTGCTCTCTCTATCAACTGATAGGGAGTATCACCGC
**Q.** Does B1 bind?
**A.** binds
